# Numbering of substitutions follows the chain as printed. Numbers in names are those of the source.
# T1: Human CD3eg linker (human)
# T1 construct: Single-chain construct; also called recombinant human CD3
# T1 chain: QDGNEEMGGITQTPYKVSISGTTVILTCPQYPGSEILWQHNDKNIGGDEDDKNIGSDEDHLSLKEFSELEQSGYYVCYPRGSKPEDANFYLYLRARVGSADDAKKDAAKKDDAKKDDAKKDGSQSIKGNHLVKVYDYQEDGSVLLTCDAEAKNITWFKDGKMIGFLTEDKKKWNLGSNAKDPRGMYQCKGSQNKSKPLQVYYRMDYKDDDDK
# B1: H183/L072 VL S26A (antibody, name in Kabat numbering, V domains shown)
# VH: QVQLVESGGGLVQPGRSLRLSCAASGFTFSNAWMHWVRQAPGKGLEWVAQIKDKGNAYAAYYAPSVKGRFTISRDDSKNSIYLQMNSLKTEDTAVYYCHYVHYASASTVLPAFGVDAWGQGTTVTVSS
# VL: DIVMTQSPLSLPVTPGEPASISCQAAQELVHMNRNTYLHWYQQKPGQAPRLLIYKVSNRFPGVPDRFSGSGSGTDFTLKISRVEAEDVGVYYCAQGTSVPFTFGQGTKLEIK
# B2: H183/L072 VL A25N (antibody, name in Kabat numbering, V domains shown)
# VH: B1 VH
# VL: B1 VL with A25N, A26S
# B3: H183/L072 VL A25M (antibody, name in Kabat numbering, V domains shown)
# VH: B1 VH
# VL: B1 VL with A25M, A26S
# B4: H183/L072 VL A25E (antibody, name in Kabat numbering, V domains shown)
# VH: B1 VH
# VL: B1 VL with A25E, A26S
# B5: H183/L072 VL A25D (antibody, name in Kabat numbering, V domains shown)
# VH: B1 VH
# VL: B1 VL with A25D, A26S
# B6: H183/L072 VL A25I (antibody, name in Kabat numbering, V domains shown)
# VH: B1 VH
# VL: B1 VL with A25I, A26S
# B7: H183/L072 VL A25G (antibody, name in Kabat numbering, V domains shown)
# VH: B1 VH
# VL: B1 VL with A25G, A26S
# B8: H183/L072 VL A25Q (antibody, name in Kabat numbering, V domains shown)
# VH: B1 VH
# VL: B1 VL with A25Q, A26S
# B9: H183/L072 VL A25P (antibody, name in Kabat numbering, V domains shown)
# VH: B1 VH
# VL: B1 VL with A25P, A26S
# B10: H183/L072 VL A25H (antibody, name in Kabat numbering, V domains shown)
# VH: B1 VH
# VL: B1 VL with A25H, A26S
# B11: H183/L072 VL A25K (antibody, name in Kabat numbering, V domains shown)
# VH: B1 VH
# VL: B1 VL with A25K, A26S
# B12: H183/L072 VL A25R (antibody, name in Kabat numbering, V domains shown)
# VH: B1 VH
# VL: B1 VL with A25R, A26S
# B13: H183/L072 VL V51S (antibody, name in Kabat numbering, V domains shown)
# VH: B1 VH
# VL: B1 VL with A26S, V56S
# notes: Dual-Ig
# B14: H183/L072 VL V94G (antibody, name in Kabat numbering, V domains shown)
# VH: B1 VH
# VL: B1 VL with A26S, V99G
# notes: Dual-Ig
# B15: H183/L072 VL Y32V (antibody, name in Kabat numbering, V domains shown)
# VH: B1 VH
# VL: B1 VL with A26S, Y37V
# notes: Dual-Ig
# B16: H183/L072 VL V94M (antibody, name in Kabat numbering, V domains shown)
# VH: B1 VH
# VL: B1 VL with A26S, V99M
# notes: Dual-Ig
# B17: H183/L072 VL Y32L (antibody, name in Kabat numbering, V domains shown)
# VH: B1 VH
# VL: B1 VL with A26S, Y37L
# notes: Dual-Ig
# B18: H183/L072 VL Y32F (antibody, name in Kabat numbering, V domains shown)
# VH: B1 VH
# VL: B1 VL with A26S, Y37F
# notes: Dual-Ig
# B19: H183/L072 VL Y32W (antibody, name in Kabat numbering, V domains shown)
# VH: B1 VH
# VL: B1 VL with A26S, Y37W
# notes: Dual-Ig
# B20: H183/L072 VL V94R (antibody, name in Kabat numbering, V domains shown)
# VH: B1 VH
# VL: B1 VL with A26S, V99R
# notes: Dual-Ig
# B21: H183/L072 VL V51T (antibody, name in Kabat numbering, V domains shown)
# VH: B1 VH
# VL: B1 VL with A26S, V56T
# notes: Dual-Ig
# B22: H183/L072 VL V94P (antibody, name in Kabat numbering, V domains shown)
# VH: B1 VH
# VL: B1 VL with A26S, V99P
# notes: Dual-Ig
# B23: H183/L072 VL V94I (antibody, name in Kabat numbering, V domains shown)
# VH: B1 VH
# VL: B1 VL with A26S, V99I
# notes: Dual-Ig
# B24: H183/L072 VL V94F (antibody, name in Kabat numbering, V domains shown)
# VH: B1 VH
# VL: B1 VL with A26S, V99F
# notes: Dual-Ig
# B25: H183/L072 VL Y32M (antibody, name in Kabat numbering, V domains shown)
# VH: B1 VH
# VL: B1 VL with A26S, Y37M
# notes: Dual-Ig
# B26: H183/L072 VL V94H (antibody, name in Kabat numbering, V domains shown)
# VH: B1 VH
# VL: B1 VL with A26S, V99H
# notes: Dual-Ig
# B27: H183/L072 VL V94T (antibody, name in Kabat numbering, V domains shown)
# VH: B1 VH
# VL: B1 VL with A26S, V99T
# notes: Dual-Ig
# B28: H183/L072 VL V94W (antibody, name in Kabat numbering, V domains shown)
# VH: B1 VH
# VL: B1 VL with A26S, V99W
# notes: Dual-Ig
# B29: H183/L072 VL Y32I (antibody, name in Kabat numbering, V domains shown)
# VH: B1 VH
# VL: B1 VL with A26S, Y37I
# notes: Dual-Ig
# B30: H183/L072 VL V94L (antibody, name in Kabat numbering, V domains shown)
# VH: B1 VH
# VL: B1 VL with A26S, V99L
# notes: Dual-Ig
# B31: H183/L072 VL Y32N (antibody, name in Kabat numbering, V domains shown)
# VH: B1 VH
# VL: B1 VL with A26S, Y37N
# notes: Dual-Ig
# B32: H183/L072 VL V94Q (antibody, name in Kabat numbering, V domains shown)
# VH: B1 VH
# VL: B1 VL with A26S, V99Q
# notes: Dual-Ig
# B33: H183/L072 VL V94N (antibody, name in Kabat numbering, V domains shown)
# VH: B1 VH
# VL: B1 VL with A26S, V99N
# notes: Dual-Ig
# B34: H183/L072 VL Y32P (antibody, name in Kabat numbering, V domains shown)
# VH: B1 VH
# VL: B1 VL with A26S, Y37P
# notes: Dual-Ig
# B35: H183/L072 VL Y32A (antibody, name in Kabat numbering, V domains shown)
# VH: B1 VH
# VL: B1 VL with A26S, Y37A
# notes: Dual-Ig
# B36: H183/L072 VL V51W (antibody, name in Kabat numbering, V domains shown)
# VH: B1 VH
# VL: B1 VL with A26S, V56W
# notes: Dual-Ig
# B37: H183/L072 VL V94S (antibody, name in Kabat numbering, V domains shown)
# VH: B1 VH
# VL: B1 VL with A26S, V99S
# notes: Dual-Ig
# B38: H183/L072 VL V94K (antibody, name in Kabat numbering, V domains shown)
# VH: B1 VH
# VL: B1 VL with A26S, V99K
# notes: Dual-Ig
# B39: H183/L072 VL V94A (antibody, name in Kabat numbering, V domains shown)
# VH: B1 VH
# VL: B1 VL with A26S, V99A
# notes: Dual-Ig
# B40: H183/L072 VL V94E (antibody, name in Kabat numbering, V domains shown)
# VH: B1 VH
# VL: B1 VL with A26S, V99E
# notes: Dual-Ig
# B41: H183/L072 VL V94D (antibody, name in Kabat numbering, V domains shown)
# VH: B1 VH
# VL: B1 VL with A26S, V99D
# notes: Dual-Ig
# B42: H183/L072 VL Y32H (antibody, name in Kabat numbering, V domains shown)
# VH: B1 VH
# VL: B1 VL with A26S, Y37H
# notes: Dual-Ig
# B43: H183/L072 VL Y32Q (antibody, name in Kabat numbering, V domains shown)
# VH: B1 VH
# VL: B1 VL with A26S, Y37Q
# notes: Dual-Ig
# B44: H183/L072 VL Y32G (antibody, name in Kabat numbering, V domains shown)
# VH: B1 VH
# VL: B1 VL with A26S, Y37G
# notes: Dual-Ig
# Molecular target: T1, Human CD3eg linker
# Assay: SPR; fold vs parent H183/L072
row,fold change of affinity [fold],Binder
1,0.8,B1
2,0.5,B2
3,0,B3
4,0,B4
5,0,B5
6,0.3,B6
7,0.9,B7
8,0,B8
9,1.2,B9
10,0,B10
11,0,B11
12,0,B12

# Molecular target: T2, Human CD137 ECD (human)
# T2 construct: entry includes C-terminal His-tag and biotin acceptor peptide; also called human CD137 extracellular domain; 4-1BB
# Assay: Biacore SPR, vs parent H183/L072
# T2 sequence (chain, as listed by the source limits assumed): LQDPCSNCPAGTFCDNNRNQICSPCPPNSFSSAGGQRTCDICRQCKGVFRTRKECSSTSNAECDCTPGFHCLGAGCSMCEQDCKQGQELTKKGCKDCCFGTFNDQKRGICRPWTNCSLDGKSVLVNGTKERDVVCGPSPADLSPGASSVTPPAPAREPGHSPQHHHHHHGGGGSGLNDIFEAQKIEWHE
row,fold change of affinity [fold],Binder
1,0.6,B13
2,0,B14
3,0,B15
4,0.7,B16
5,0.2,B17
6,1.7,B18
7,0.7,B19
8,0.4,B20
9,0.6,B21
10,0.1,B22
11,0.7,B23
12,0,B24
13,0,B25
14,1.8,B26
15,0.4,B27
16,0,B28

row,fold change of affinity [fold],Binder
1,0,B29
2,0.3,B30
3,0.2,B31
4,0.8,B32
5,0.2,B33
6,0,B34
7,0.1,B35
8,0.1,B36
9,0,B37
10,0.1,B38
11,0.1,B39
12,0,B40
13,0,B41
14,0.1,B42
15,0.2,B43
16,0.1,B44
